# How the values were obtained:
# [1] = system: AncSZ; test: phosphorylation enrichment, bacterial display (enrichment ratio); higher = better substrate or ligand; peptides without Tyr show the background
# [2] = target: EPHB1 (UniProt P54762); test: as above
# [3] = target: EPHB2 (UniProt P29323); test: as above
# [4] = target: FGFR1 (UniProt P11362); test: as above
# [5] = target: FGFR3 (UniProt P22607); test: as above
# [6] = system: Fer (mouse); test: as above
# [7] = target: Fes (UniProt P07332); test: as above
# [8] = target: Fyn (UniProt P06241); test: as above
# [9] = target: Hck (UniProt P08631); test: as above
# [10] = target: Jak2 (UniProt O60674); test: as above
# [11] = target: MERTK (UniProt Q12866); test: as above
# [12] = system: c-Abl (mouse); test: as above
# [13] = system: c-Src; test: as above
# [14] = target: Grb2 SH2 (UniProt P62993); test: SH2 binding enrichment of the phosphorylated peptide, bacterial display (enrichment ratio); higher = better substrate or ligand; peptides without Tyr show the background
# [15] = target: SHP2-C SH2; test: as above
# [16] = target: c-Src SH2; test: as above
# 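Throughout, for SH2 binding enrichment of the phosphorylated peptide, bacterial display: peptide library displayed on the E. coli surface as eCPX fusions, selected cells deep-sequenced, score is each peptide's frequency after selection divided by its frequency in the input.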
# 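Throughout, for phosphorylation enrichment, bacterial display: 11-residue human phosphosite peptides and single-mutation variants displayed on the E. coli surface, counted by deep sequencing, each peptide's frequency after selection divided by its frequency in the unselected input library; frequency after pTyr selection over input frequency; kinase dosed for 20-30% of maximal phosphorylation in three min.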
# Sequence of EPHB1 (P54762 whole entry, looked up): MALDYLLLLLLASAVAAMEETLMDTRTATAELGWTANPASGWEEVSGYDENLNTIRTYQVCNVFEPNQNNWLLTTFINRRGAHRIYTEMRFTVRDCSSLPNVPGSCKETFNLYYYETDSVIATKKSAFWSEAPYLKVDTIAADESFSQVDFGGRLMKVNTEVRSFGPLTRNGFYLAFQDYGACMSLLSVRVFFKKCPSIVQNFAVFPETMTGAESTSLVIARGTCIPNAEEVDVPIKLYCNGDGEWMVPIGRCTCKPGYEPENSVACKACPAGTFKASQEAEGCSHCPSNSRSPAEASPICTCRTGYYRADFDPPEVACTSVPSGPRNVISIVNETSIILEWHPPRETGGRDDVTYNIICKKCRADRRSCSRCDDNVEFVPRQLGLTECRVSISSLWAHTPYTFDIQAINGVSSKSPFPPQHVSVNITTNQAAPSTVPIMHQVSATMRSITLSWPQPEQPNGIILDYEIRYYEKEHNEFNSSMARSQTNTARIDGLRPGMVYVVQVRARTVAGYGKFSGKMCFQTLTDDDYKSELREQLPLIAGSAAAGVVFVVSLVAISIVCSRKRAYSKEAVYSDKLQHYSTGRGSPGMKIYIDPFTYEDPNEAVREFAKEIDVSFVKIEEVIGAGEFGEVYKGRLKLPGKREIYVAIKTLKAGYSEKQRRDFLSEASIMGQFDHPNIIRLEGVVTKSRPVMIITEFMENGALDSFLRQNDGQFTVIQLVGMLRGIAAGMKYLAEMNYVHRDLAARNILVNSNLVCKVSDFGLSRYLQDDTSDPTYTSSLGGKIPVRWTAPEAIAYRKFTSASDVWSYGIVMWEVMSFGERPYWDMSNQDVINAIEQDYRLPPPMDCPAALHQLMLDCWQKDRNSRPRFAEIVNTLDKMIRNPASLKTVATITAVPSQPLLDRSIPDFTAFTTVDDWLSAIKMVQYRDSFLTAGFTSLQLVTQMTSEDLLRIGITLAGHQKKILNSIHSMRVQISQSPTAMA
# Sequence of FGFR3 (P22607 whole entry, looked up): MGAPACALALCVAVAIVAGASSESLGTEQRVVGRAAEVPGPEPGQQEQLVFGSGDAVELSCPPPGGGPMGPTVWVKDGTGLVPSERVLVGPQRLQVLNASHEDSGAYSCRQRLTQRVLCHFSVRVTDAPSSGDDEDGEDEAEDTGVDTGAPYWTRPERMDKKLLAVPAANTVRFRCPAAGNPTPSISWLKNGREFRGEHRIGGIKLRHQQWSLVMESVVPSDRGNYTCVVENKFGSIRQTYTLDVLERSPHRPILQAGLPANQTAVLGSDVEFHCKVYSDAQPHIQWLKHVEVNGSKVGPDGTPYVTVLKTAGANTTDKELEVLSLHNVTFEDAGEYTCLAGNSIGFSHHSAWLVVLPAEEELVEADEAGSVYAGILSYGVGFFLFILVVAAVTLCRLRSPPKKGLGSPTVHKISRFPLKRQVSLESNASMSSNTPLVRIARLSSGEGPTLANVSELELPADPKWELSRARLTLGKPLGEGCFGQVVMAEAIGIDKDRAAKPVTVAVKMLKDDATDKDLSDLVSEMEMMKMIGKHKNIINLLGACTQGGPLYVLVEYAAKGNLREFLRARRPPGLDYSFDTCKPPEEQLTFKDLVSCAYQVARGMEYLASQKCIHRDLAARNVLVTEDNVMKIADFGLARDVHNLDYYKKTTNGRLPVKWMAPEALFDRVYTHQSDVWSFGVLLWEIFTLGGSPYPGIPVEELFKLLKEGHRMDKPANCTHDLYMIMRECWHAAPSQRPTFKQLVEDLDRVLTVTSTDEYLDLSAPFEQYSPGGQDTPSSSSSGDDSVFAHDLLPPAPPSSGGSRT
# Sequence of MERTK (Q12866 whole entry, looked up): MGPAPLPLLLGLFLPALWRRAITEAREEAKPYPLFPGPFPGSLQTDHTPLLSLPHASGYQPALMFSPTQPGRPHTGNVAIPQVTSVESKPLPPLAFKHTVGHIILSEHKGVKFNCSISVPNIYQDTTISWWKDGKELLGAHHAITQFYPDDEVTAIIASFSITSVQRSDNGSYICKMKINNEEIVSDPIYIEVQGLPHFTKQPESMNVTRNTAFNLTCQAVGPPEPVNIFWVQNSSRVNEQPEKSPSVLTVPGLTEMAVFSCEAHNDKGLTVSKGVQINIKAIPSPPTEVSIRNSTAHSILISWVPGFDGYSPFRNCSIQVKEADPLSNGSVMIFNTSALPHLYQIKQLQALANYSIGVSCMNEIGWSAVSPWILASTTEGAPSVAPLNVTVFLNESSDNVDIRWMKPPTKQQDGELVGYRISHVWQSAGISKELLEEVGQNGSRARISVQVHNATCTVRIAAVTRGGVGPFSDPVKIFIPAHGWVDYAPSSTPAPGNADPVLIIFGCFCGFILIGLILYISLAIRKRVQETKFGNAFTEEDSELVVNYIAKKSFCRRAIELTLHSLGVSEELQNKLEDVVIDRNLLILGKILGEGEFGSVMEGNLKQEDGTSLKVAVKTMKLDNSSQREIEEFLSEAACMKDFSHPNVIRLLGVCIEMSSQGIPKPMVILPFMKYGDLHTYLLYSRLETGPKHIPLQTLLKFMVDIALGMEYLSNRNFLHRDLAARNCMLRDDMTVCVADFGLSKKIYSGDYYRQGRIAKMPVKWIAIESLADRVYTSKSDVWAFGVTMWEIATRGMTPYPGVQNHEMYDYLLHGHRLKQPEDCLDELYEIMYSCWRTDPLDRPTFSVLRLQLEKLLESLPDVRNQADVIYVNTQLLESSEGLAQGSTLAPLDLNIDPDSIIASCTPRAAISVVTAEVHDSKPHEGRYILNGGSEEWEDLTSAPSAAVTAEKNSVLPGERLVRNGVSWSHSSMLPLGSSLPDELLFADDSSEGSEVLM
# Sequence of EPHB2 (P29323 whole entry, looked up): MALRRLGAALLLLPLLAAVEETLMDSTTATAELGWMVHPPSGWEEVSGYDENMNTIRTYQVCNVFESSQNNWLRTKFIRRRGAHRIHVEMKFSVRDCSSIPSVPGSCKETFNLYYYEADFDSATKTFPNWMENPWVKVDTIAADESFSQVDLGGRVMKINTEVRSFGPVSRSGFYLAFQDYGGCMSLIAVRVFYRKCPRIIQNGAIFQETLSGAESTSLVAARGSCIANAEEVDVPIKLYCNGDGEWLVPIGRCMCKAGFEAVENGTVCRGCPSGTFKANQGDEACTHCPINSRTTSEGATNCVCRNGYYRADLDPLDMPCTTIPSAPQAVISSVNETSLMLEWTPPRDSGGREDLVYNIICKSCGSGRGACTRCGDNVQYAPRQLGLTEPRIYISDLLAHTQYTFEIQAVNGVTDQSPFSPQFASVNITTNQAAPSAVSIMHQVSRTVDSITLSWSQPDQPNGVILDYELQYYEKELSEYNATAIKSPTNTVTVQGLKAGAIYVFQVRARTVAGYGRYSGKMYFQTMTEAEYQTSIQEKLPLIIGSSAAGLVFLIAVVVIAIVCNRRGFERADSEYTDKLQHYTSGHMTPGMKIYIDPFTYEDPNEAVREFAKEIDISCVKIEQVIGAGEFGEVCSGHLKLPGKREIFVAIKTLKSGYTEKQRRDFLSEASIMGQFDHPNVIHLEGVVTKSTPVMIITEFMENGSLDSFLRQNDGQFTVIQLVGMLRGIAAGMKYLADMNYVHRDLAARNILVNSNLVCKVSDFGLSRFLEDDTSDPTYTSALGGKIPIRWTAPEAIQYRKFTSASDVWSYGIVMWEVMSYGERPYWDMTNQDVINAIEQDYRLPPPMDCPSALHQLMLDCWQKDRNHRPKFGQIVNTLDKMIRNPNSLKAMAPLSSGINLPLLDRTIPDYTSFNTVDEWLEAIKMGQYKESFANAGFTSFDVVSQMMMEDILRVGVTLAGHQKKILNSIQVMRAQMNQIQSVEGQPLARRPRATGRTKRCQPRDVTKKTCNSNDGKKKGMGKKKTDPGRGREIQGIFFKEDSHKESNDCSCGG
# Sequence of Hck (P08631 whole entry, looked up): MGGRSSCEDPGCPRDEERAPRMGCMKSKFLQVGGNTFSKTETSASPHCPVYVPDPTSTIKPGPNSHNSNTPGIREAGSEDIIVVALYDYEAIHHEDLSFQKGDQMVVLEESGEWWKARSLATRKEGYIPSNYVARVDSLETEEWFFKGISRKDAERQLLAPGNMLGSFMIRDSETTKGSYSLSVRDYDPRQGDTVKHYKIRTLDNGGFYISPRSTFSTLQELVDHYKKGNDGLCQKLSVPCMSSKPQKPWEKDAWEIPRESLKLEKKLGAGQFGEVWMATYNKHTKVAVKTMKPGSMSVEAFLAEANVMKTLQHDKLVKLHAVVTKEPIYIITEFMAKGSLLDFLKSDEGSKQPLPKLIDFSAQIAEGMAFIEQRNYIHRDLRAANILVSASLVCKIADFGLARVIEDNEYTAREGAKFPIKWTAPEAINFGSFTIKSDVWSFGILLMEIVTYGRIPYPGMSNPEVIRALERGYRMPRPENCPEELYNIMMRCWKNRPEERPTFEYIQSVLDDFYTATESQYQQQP
# Sequence of Fyn (P06241 whole entry, looked up): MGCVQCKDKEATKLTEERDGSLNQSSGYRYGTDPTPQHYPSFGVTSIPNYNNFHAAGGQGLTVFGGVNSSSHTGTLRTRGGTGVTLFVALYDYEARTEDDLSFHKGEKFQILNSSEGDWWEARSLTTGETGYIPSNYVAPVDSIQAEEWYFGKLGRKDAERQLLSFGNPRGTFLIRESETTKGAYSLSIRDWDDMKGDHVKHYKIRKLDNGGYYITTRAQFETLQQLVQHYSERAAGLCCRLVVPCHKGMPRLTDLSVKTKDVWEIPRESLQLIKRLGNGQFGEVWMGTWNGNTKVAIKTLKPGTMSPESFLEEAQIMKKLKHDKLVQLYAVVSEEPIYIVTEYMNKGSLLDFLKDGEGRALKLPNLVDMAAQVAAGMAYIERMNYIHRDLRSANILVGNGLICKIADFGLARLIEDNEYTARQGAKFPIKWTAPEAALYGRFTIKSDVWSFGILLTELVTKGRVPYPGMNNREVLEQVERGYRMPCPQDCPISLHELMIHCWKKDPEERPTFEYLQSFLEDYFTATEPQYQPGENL
Sequence,phosphorylation enrichment [1],phosphorylation enrichment [2],phosphorylation enrichment [3],phosphorylation enrichment [4],phosphorylation enrichment [5],phosphorylation enrichment [6],phosphorylation enrichment [7],phosphorylation enrichment [8],phosphorylation enrichment [9],phosphorylation enrichment [10],phosphorylation enrichment [11],phosphorylation enrichment [12],phosphorylation enrichment [13],SH2 binding enrichment [14],SH2 binding enrichment [15],SH2 binding enrichment [16]
PRARTYCFKQE [KLHDC9_Y175_S171R_YF],0.519,0.345,0.301,0.395,0.517,0.383,0.458,0.421,0.502,0.435,0.355,0.591,0.458,1.38,1.12,1.35
PRDSGYSYETI [MAP1B_Y1921_S1917R],0.917,0.448,0.745,0.679,0.898,0.777,1.29,0.354,0.405,0.781,0.55,0.542,0.467,0.774,0.564,12.7
PRNLIYFGEHP [TRPV6_Y201_C197R],1.23,0.631,0.925,0.423,0.912,0.619,1.51,0.738,0.932,1.57,0.448,0.92,1.08,0.531,0.598,0.401
PRPAGYPSMVS [CACNA1C_Y1832_T1835M],0.678,0.393,0.561,0.386,0.364,0.412,0.668,0.48,0.456,0.475,0.365,0.435,0.416,0.755,0.507,0.312
PRRRFYVVACD [RNASE3_Y134_G130R],0.597,0.543,0.701,0.614,0.656,0.433,0.667,0.759,0.705,0.733,0.73,0.715,0.545,0.592,0.486,0.47
PSELYYSKIGP [SMG1_Y2254],2.07,5.13,2.91,12.9,8.9,16.3,1.68,8.78,18.8,4.02,23.8,3.88,10.8,0.666,2.26,5.62
PTDGVYVMPTV [MYO7A_Y1668_S1666G],6.14,2.01,1.48,2.95,2.52,0.789,1.21,14,6.35,1.3,11.7,4.76,7.86,0.885,0.943,0.848
PTEAQYRFIFM [PTPN11_Y511_Q506P_YF],1.6,0.876,0.767,1.9,1.21,1.06,1.81,0.939,1.07,1.44,0.702,1.32,0.477,0.585,0.593,0.317
PVQAAYQKVEA [HBB_Y131_V135E],0.921,0.54,0.559,0.709,0.525,0.676,0.887,0.597,0.653,1.16,0.604,0.879,0.587,1.02,0.733,1.05
PYYASYPPSPD [GDAP2_Y491_T489A],1.41,10.8,17.7,4.96,3.53,0.915,1.15,10.7,4.78,1.25,11.2,4.3,7.56,0.709,0.579,1
QDEPTYARSSK [PEAK1_Y616_H611Q],0.787,0.389,0.498,0.603,0.508,0.466,0.869,0.554,0.838,0.685,0.513,0.738,0.661,0.816,0.69,0.561
QEGPEYWDQNT [HLA-A_Y83_E87N],1.5,0.898,0.719,0.711,1.14,0.802,1.42,0.6,0.632,1.36,0.625,1.25,0.546,0.834,0.702,0.419
QFLMKYVRSAS [ABCD1_Y337_W339R],0.995,0.673,0.666,0.431,0.873,0.559,1.05,0.605,0.566,1.2,0.476,0.82,0.799,0.517,0.927,0.369
QGLRLYRPHLP [BTK_Y617_A622P],0.772,0.444,0.568,0.48,0.408,0.606,0.857,0.401,0.522,0.967,0.512,0.712,0.419,0.816,1.34,0.781
QGLRLYRTHLA [BTK_Y617_P619T],0.509,0.359,0.486,0.306,0.365,0.42,0.478,0.339,0.317,0.577,0.333,0.448,0.312,1.34,1.31,1.08
QHNPEYVQQAT [LRRC7_Y1058_S1063T],0.612,0.425,0.455,0.505,0.553,0.461,0.799,0.422,0.491,0.985,0.238,0.517,0.284,0.838,0.617,0.429
QKINNYLTVPA [SLC9A1_Y683],0.618,1.34,0.706,0.758,0.445,0.497,0.727,0.508,0.689,0.615,0.65,0.833,0.524,0.469,0.573,0.376

Sequence,phosphorylation enrichment [1],phosphorylation enrichment [2],phosphorylation enrichment [3],phosphorylation enrichment [4],phosphorylation enrichment [5],phosphorylation enrichment [6],phosphorylation enrichment [7],phosphorylation enrichment [8],phosphorylation enrichment [9],phosphorylation enrichment [10],phosphorylation enrichment [11],phosphorylation enrichment [12],phosphorylation enrichment [13],SH2 binding enrichment [14],SH2 binding enrichment [15],SH2 binding enrichment [16]
QKKEEYKMALY [F8_Y1990_R1985Q],1.72,0.984,0.626,0.527,0.582,0.895,1.41,0.603,0.496,1.63,0.693,0.902,0.978,0.629,0.565,0.48
QKMADYSNKLY [PDPR_Y104],0.61,0.492,0.455,0.436,0.735,0.435,0.717,0.515,0.692,0.579,0.535,0.555,0.509,0.776,0.604,0.447
QLQQAYQEAFE [YWHAZ_Y149_S145L],2.59,1.43,1.69,1.76,3.04,1.72,2.69,1.23,1.67,1.77,1.29,1.6,1.12,0.83,1.07,2.03
QMIETYFDFRL [NSMF_Y506],2.67,3.62,1.36,7.65,5.67,0.622,2.56,6.04,5.25,6.57,2.65,1.62,8.42,1.29,0.659,0.384
QMWLKYSQSDL [SMC1A_Y714_R711W],1.67,0.637,0.562,0.701,1.08,0.512,1.8,0.485,0.546,1.27,0.505,1.11,0.668,1.02,0.878,0.455
QNAGDYFDLFG [PTPN11_Y62_T59A_YF],6.62,21.9,16.2,25.5,24.5,0.681,1.57,0.516,1.02,13.4,1.71,1.44,1.2,0.997,0.733,0.505
QNTGNYYDLYG [PTPN11_Y62_D61N],2.38,30.6,28.7,22.8,20.6,3.81,1.65,9.62,8.01,2.99,13.2,1.28,5.18,0.851,0.898,3.3
QNVADYMRCLM [RPL5_Y207_Y210C],1.68,1.03,0.801,0.753,0.969,0.797,1.62,0.729,0.652,1.37,0.42,0.911,0.444,0.912,0.725,0.624
QQLDKYQELLD [LMNA_Y359_E358K],1.26,0.889,0.806,0.715,0.783,0.452,0.995,0.485,0.441,1.33,0.446,0.789,0.453,0.958,0.59,1.31
QRAADYYSQQM [GBP6_Y333],1.29,0.933,1.14,2.32,1.75,0.579,1.53,1.42,0.611,0.728,0.813,0.591,0.524,0.887,0.608,0.56
QRKPSYNQLPS [BRCA2_Y71_A75P],0.886,0.449,0.522,0.557,0.598,0.536,0.767,0.599,0.691,0.72,0.567,1.08,0.682,0.858,0.648,0.423
QRNEEYCLLDS [ITK_Y198_R193Q],1.7,1.11,0.995,1.74,1.37,0.862,2.35,0.735,0.707,1.85,0.861,1.67,0.963,0.924,0.775,0.599
QSHKVYFQHLL [POR_Y604_V605F],1.14,0.671,0.503,0.622,0.915,0.698,1.52,0.473,0.598,1.22,0.725,0.991,0.663,0.836,0.761,0.623
QSHKVYVQHLL [POR_Y604],0.919,0.444,0.572,0.867,0.977,0.742,0.971,0.908,0.858,0.798,0.594,0.806,0.618,0.979,1,0.665
QSKGIYYVQLE [MGAT4B_Y262],1.21,1.12,0.872,3.51,3,0.763,1.42,2.5,2.22,1.47,8.64,1.1,3.33,0.724,1.71,1.35
QSSALYEDHYL [ASS1_Y83_R86H],1.24,5.41,2.07,0.477,0.702,18.5,1.18,0.904,1.58,1.18,1.33,0.734,1.14,0.881,0.54,0.524

# From the supplement of paper PMC10065799, “High-throughput profiling of sequence recognition by tyrosine kinases and SH2 domains using bacterial peptide display” (eLife, 2023)
